According to PMC3432076:

Target: His-ΔPACC (Neurospora crassa) (UniProt Q7RVQ8)
Experiment: EMSA
Conditions: EMSA: 25 mM HEPES-KOH pH 7.9, 20 mM KCl, 10% glycerol, 1 mM DTT, 0.2 mM EDTA, 0.5 mM PMSF, 12.5 mM benzamidine, 5 µg/mL antipain and pepstatin A, 2 µg …

Chain of His-ΔPACC (Neurospora crassa) (Q7RVQ8 1-213, stated change not applied): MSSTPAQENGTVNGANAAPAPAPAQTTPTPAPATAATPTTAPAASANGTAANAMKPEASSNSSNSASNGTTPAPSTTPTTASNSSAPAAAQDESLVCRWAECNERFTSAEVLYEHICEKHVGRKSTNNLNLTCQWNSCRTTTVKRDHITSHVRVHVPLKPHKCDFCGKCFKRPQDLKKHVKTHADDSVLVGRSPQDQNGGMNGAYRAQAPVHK

Sequence | binding
GACCCAACAGCCCAACTTGTGCTTGTCTTGTTCTTTTCCGGCCTCGCTAGAGGTACTATTTCTTCGCTTCTTGTCTGACTTTTTTCAATAGCCGTCTTTGGGCCAGAAATTACGTGAGATCGGGGCCGCATGGGAGTATTCGTTGC (double strand) [mpacC probe (CTTGGC to AAATTA)] | binds more weakly
GACCCAACAGCCCAACTTGTGCTTGTCTTGTTCTTTTCCGGCCTCGCTAGAGGTACTATTTCTTCGCTTCTTGTCTGACTTTTTTCAATAGCCGTCTTTGGGCCAGCTTGGCCGTGAGATCGGGGCCGCATGGGAGTATTCGTTGC (double strand) [pacC probe (146 bp gsn promoter)] | binds
